According to publication PMC10082768:

Experiments:
[1] = molecular target: MUC2-C, the C-terminal part of the human MUC2 mucin, fully glycosylated (human); assay: SEC-SAXS; 25 °C; 25 mM HEPES pH 7.4, 100 mM NaCl, 10 mM CaCl2; beamline BM29, ESRF
[2] = molecular target: MUC2-C, the C-terminal part of the human MUC2 mucin, fully glycosylated (human); assay: polyacrylamide gel electrophoresis, non-reduced against reduced; purified MUC2-C; band of around 300 kDa non-reduced, about 150 kDa after reduction

stoichiometry N [1]: 2
stoichiometry N [2]: 2
Substance: MUC2-C, the C-terminal part of the human MUC2 mucin, fully glycosylated (domain or fragment)
